In the supplement of paper PMC10567573:

B1: FBXO3 (parent)
chain: GGFPIIRDQIFRYVHDPECVATTG
B2: SOAT1 (parent)
chain: KSAAMLAVFAVSAVVHEYALAVCL

Variants of: B1
Assay: protein stability index of a GFP-peptide fusion (GPS, HEK-293T) (PSI 1-6); higher = more stable
Conditions: c terminus: a fixed tail appended
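Also: lentivirally expressed fusions sorted by FACS into six bins by GFP to DsRed ratio, PSI derived from sequencing read proportions per bin multiplied by bin number.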

Protein stability index of substitutions, site by site:
T23: E 2.09, S 1.59, A 1.8, N 2.13, Q 1.96, G 1.12, H 1.89, F 2.25, I 1.89, C 1.91, Y 1.61, R 1.64, V 1.61, M 1.73, L 1.57, P 1.71, D 1.66, K 2.03
V20: G 2.08, Q 2.04, T 1.68, W 1.78, K 1.27, N 2.49, C 2.84, M 1.79, R 1.63, F 1.8, D 1.45, S 2.32, A 2.24, P 2.23, H 2.01, I 2.19, Y 1.9, E 2.22, L 1.81
C19: H 1.57, Q 1.94, D 2.49, G 1.73, P 1.94, N 1.74, A 1.6, L 1.72, W 2.15, T 2.09, R 1.79, M 2.31, S 1.9, Y 1.81, V 2.08, E 2.47, K 1.78, I 1.55, F 1.57
E18: W 1.38, Q 1.28, I 1.92, A 2.61, P 2.1, Y 2.52, F 1.88, D 1.68, T 1.98, V 1.7, C 2.04, G 1.71, N 1.8, L 1.58, K 2.38, H 1.99, M 1.79, S 1.57, R 1.69
G24: S 1.81, V 1.69, D 2.22, C 1.7, W 1.61, N 2.31, L 1.96, A 1.83, Q 2.78, P 1.82, R 2.22, F 1.93, T 2.49, Y 1.99, K 1.96, M 1.33, H 2.25, E 2.22, I 1.5
A21: S 1.93, L 1.45, F 1.64, Q 2.05, T 1.69, P 1.86, Y 2.49, C 1.39, I 1.5, V 1.36, W 1.7, R 1.82, K 1.62, E 1.55, G 2, H 2.77, N 1.5, D 1.06, M 2.42
P17: T 2.42, Y 1.64, R 1.49, Q 1.97, S 2.93, V 1.46, W 2.01
T22: Q 1.76, C 1.72, D 2.25, M 1.53, L 1.83, Y 1.88, I 2.26, A 1.74, G 1.66, F 1.67, K 1.64, E 2.28, W 1.84, R 2.56, S 1.63, H 1.92, V 1.67, N 2.61, P 2.23

Variants of: B2
Assay: as above
Conditions: c terminus: a fixed tail appended

Protein stability index of substitutions, site by site:
F9: S 2.3, M 2.35, W 3.01, A 1.73, D 4.42, H 3.12, Q 3.43, P 1.92, V 1.47, R 2.15
V14: F 1.91, H 2.91, W 4, N 2, L 3.6, D 3.41
H16: L 2.94, T 2.1, K 2.88, S 2.73, P 2.51, D 2.58
M5: Q 3.61, R 4.56, E 3.88, D 3.48, G 3.1, W 2.56, C 3.11, P 3.6, T 3.55, N 2.5, A 2.63, F 2.22, S 4.27, L 3.74
A4: K 2.98, N 2.2, H 3.89, M 2.94, T 3.43, L 1.85, Y 2.44, I 1.5, G 2.92, V 3.08, W 1.72, D 2.45
A21: D 3.15, F 3.01, E 3.42, I 1.6
Y18: W 3.5, Q 2.56, D 2.21, F 4.1, M 1.85, P 2.23
E17: C 2.5, Q 3.61, G 1.39, N 2.23, T 3.21, F 2.73
A7: I 1.49, R 3.98, M 1.54, V 2.07, P 2.58, T 3.23, L 3.14, G 4.09, H 2.91, D 2.99, W 2.69, Y 3.49, Q 2.59
V11: C 2.8, A 2.8, Q 3.03, N 3.47, P 4.61, H 1.4, D 3.09, R 2.94, F 2.89
A3: N 2.7, H 3.8, W 1.96, T 2.06, M 3.72, P 3.72, K 2.88, S 2.25, Y 2.83, D 2.23, I 3.19, G 2.25, Q 3.47, V 1.5
L6: N 3.55, C 3.42, F 2.21, M 4.28, Q 2.68, H 2.73, R 2.02, E 2.25, D 2.74, G 2.94, K 2.46, I 3.09, P 3.78
A13: F 2.17, Q 5.23, L 2.81, W 3.01, T 4.82, I 3.04, N 2.97, K 1.37
S12: N 4.18, R 2.11, T 2.46, A 1.63, W 2.99, Q 3.61, P 2.41, I 3.04
S2: T 3.26, P 2.97, I 2.12, Y 3.58, M 2.99, N 2.09, C 2.54, E 3.57, R 2.91, L 2.66
V8: S 3.28, W 3.01, Y 3.31, N 3.98, K 2.31, D 2.77, I 1.62, C 2.43, F 4.29, T 3.11, A 2.89, H 3.18, P 3.28
L20: W 3.92, I 1.49, N 4.2, Q 4.49, K 2.58, T 2.31, C 2.93, S 2.62, E 3.95
A19: M 2.47, Q 2.44, Y 2.56, R 3.46, L 3.87, K 2.39, H 2.88
K1: R 3.37, W 3.4, T 4.59, G 4.12, D 4.34, M 2.64, Q 3.7, V 1.84, A 3.09, N 1.73, H 2.28, E 3.54, S 5.65, C 1.84, F 2.89
V15: G 2.69, Q 2.06, R 1.83, H 3.15
A10: Q 3.2, T 1.83, E 2.05, G 3.62, S 3.12, V 3.03, P 3.61, H 3.74
